The nature of the data set: label from the status in PepcDB records.
For “MHSTLLRTALLTAALGSFSHTATAEGVMVHLFQWKFNDIANECETVLGPKGFGGVQITPPAEHKQGSQVWWTVYQPVSFKNFNSFGGSEAELRSMIARCNAAGVKVYADAVFNQLASGSGTATGGGSYNAGQYQYPQFGYNDFHHSGDITNYGDSNNVWNGALYGMPDLNTGSPYVQDQIATYMKTLLGWGVAGFRIDAAKHMAPTDVKAILDKAGSPKAYLEVIGAGGESPDIQPGRYTYIDTVTDFKYGTDLAANFNGQIKNLKTLGESWGLLPSAKAFVFVVNHDRERGHGGGGMLTFMSGARYDLANTFMIAWPYGWKQVMSGYRFENMSTYETDKGAPGSTPCTDSQWNCEQRRPTIMNMALFHNRTEGQPVSNWWDNGNNQIAFGRGDKGFVAINNESGSLVASLQTALPAGEYCNLLGGNDYCSGGYVTVDGSGKASLNVPGMKAAAIIAGCTKASPCGGSALPGTKFSSMNLRGTHNAWGNTPMTVDANRVWSATLTLTGNGDATGAQRFKFDVFGNWAENYGDNEGDGIADKGSSKDILVSGAGSYRITLNESDLRYTVTPLTSNQAPVAALSPKTLSVKAGESVVFDASASHDDGGVVSYSWSSGGTAATETVRFDTPGTYTVTVTVTDAEGLTASASATVTVTDDNGTYTSVLPTLNFRGTPNAWGSLAMTLVADNQWEALVTFNGQANQRFKFDVKGDWSKNYGDTNKDGVAELAGSDILTSVTGQYRVRFNDQTLQYSLTPVSVGYAKNFASLNIRGTTNNWGSTPMSLVGDHLWQASVTFTGSGDGNGGQRFKFDVKGDWTQNYGDTNRDGVAEQAGADITTALVGVYVVRFNDQTLAYSLNAQ”, the protein production entry is reported as “failed”.

Consider “MHTALINHIRKFIFLTDEDAGTLSAFFQLKKVRKKETLLKTGEICRINYFVVKGCLRLFFIDEKGIEQTTQFAIENWWLSDYMAFQKQQPADFYIQSVENCELLSITYTEQENLFERIPALERYFRLVYQKSFAAAQLRSKFQHMYSKEEQYHNFSSRFPEFIQRVPQYLLASYLGFTPEYLSEIRKKYIS”, for which the protein production result is on record as “not failed”.

Turning to “MHTARFPSSATPSIFFRYFMALNEQDVARIARLALIELPPDQRGRAQAELNGILHLIERLQAVDTQGVEPLAHPLSAHEDITLRLREDAVSEQATEARRAELLANAPESADGLFLVPKVIE”, the protein production entry is recorded as “failed”.

“MHTLEQLRAGALTGIQALKLSENLTEVPAEVFQLADTLEILDLSGNRLHSLPQEMACLTRLRILFLSDNDFTIFPEVLKELKQLDMLGIKANNIQVIAEDAIPVSLRWLILTDNCIEALPVSIGRCTKLQKVMLAGNQLSGLPDELAACRNIELLRISANNMHTFPEVVKQLPRLAWLAYSSNPFQVNRSSFNALPVIAWENVALMEQLGAGASGIIYKARLNTGKSPEDVAVKVFKGAVTSDGLPEDEMTACMQAGRNSHLVSVLGVIGGHPEGMHGLVMELIPAEYKNLGRPPSFVTCTRDTFAAGTRFTAQQMLLILKGVAEAAKQLHDNGIMHGDLYAHNTLINEKYHSLFGDFGAATLYDKNNRDEAFFLERLDVRAFGCLADDLLQYSVCTKEDEWCLETLKRLSAGCMNEEPDKRPAFNTIVYELQLLQNTHLEHHHHHH”: the protein production entry is recorded as “not failed”.

Consider “MHVDIELPLGRATALQRLRAQGFCVLTPAALETLTGMPLDAFDMMLPYWEELAPDLHLKDGGHYRYRRHGCFMQTLQPGQLETVQHRAHWQPTTYNALHGGMERWFEPLSNEMIHLPSWSALLVALGELFAKLRAPQGGRWYIEAHPFRIDTEGGVGRPTPEGAHRDGVDFVAVVFIGRQGVRGGETRVFDAAGPQGVRFTLEQPWTVLLLDDQQVIHESTPLLPLDPADPAVPAHRDTLVLTYRSGGFQAPA”, for which the protein production result was “not failed”.

Source of the values: a protein production outcome set (Wang et al. 2014).
